The nature of this data set: live-cell confocal, cytosolic distribution. The note with it: glycan lost; control: WT YFP-cryAB.

B1: cryAB (crystallin alphaB / HspB5): T170A (protein)
parent chain: MDIAIHHPWIRRPFFPFHSPSRLFDQFFGEHLLESDLFPTSTSLSPFYLRPPSFLRAPSWFDTGLSEMRLEKDRFSVNLDVKHFSPEELKVKVLGDVIEVHGKHEERQDEHGFISREFHRKYRIPADVDPLTITSSLSSDGVLTVNGPRKQVSGPERTIPITREEKPAVTAAPKK
B1: the localisation_or_trafficking result is reported as “changes”.

These data come from publication PMC6374115.
